# T1: mouse asialoglycoprotein receptor 1 (ASGR1), FLAG tagged, expressed on CHO-S cells (mouse, UniProt P34927 1-284)
# T1 sequence (looked up): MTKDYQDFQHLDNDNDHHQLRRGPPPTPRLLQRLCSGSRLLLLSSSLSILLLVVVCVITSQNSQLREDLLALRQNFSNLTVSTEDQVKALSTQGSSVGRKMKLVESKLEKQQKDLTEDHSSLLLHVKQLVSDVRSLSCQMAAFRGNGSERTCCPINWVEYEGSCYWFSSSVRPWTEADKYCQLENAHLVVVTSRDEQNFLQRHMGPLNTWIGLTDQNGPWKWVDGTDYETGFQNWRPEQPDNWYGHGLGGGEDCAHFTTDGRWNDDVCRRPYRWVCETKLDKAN
# B1: asialofetuin (ligand)
# chain: IPLDPVAGYKEPACDDPDTEQAALAAVDYINKHLPRGYKHTLNQIDSVKVWPRRPTGEVYDIEIDTLETTCHVLDPTPLANCSVRQQTQHAVEGDCDIHVLKQDGQFSVLFTKCDSSPDSAEDVRKLCPDCPLLAPLNDSRVVHAVEVALATFNAESNGSYLQLVEISRAQFVPLPVSVSVEFAVAATDCIAKEVVDPTKCNLLAEKQYGFCKGSVIQKALGGEDVRVTCTLFQTQPVIPQPQPDGAEAEAPSAVPDAAGPTPSAAGPPVASVVVGPSVVAVPLPLHRAHYDLRHTFSGVASVESSSGEAFHVGKTPIVGQPSIPGGPVRLCPGRIRYFKI
# modifications: biotinylated (site not stated); desialylated with neuraminidase
# Target: T1, mouse asialoglycoprotein receptor 1 …
# Experiment: flow cytometry on cells
binder,measurement,value
B1,EC50,53 nM

# From publication PMC11275528 (mAbs, 2024)
